The values that follow come from patent EP4786495A1 (Nanjing Leads Biolabs Co., Ltd., dated 2026).

Assay [1] deals with T1, human BDCA2 protein (Kactus Biosystems, Cat# BCA-HM402) (human, UniProt Q8WTT0 45-213).
T1 construct: also called Human BDCA2-His
T1 sequence: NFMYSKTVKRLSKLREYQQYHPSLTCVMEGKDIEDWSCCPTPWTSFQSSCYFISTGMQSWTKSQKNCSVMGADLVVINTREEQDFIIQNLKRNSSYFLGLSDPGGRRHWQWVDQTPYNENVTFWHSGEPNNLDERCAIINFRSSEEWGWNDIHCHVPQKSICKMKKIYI
In words: BLI Octet RED96e, protein captured on AHC sensor, BDCA2 100 nM in solution.

The target of assay [2] is T2, human APRIL protein (ACRO Biosystems, Cat. No.: APL-H52D1) (human, UniProt O75888 115-250, limits assumed).
T2 sequence (looked up): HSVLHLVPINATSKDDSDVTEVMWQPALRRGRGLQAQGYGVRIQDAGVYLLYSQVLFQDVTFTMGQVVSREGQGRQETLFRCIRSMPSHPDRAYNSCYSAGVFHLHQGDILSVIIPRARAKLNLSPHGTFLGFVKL
Description: BLI Octet RED96e, protein captured on AHC sensor, APRIL 100 nM in solution. On the technique in general: BLI is a label-free optical method that tracks binding on a fibre tip over time.

In assay [3] the target is human BAFF protein (ACRO Biosystems, Cat. No.: BAF-H52D4) (human, UniProt Q9Y275 134-285). Description: BLI Octet RED96e, protein captured on AHC sensor, BAFF 100 nM in solution.
Chain of human BAFF protein (ACRO Biosystems, Cat. No.: BAF-H52D4) (Q9Y275 134-285 limits assumed): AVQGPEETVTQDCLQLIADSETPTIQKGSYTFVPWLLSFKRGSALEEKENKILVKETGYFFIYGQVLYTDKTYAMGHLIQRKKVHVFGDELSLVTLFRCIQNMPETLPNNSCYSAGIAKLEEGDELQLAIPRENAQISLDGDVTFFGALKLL

B1: control antibody litifilimab analogue (antibody, human IgG1, kappa, V domains shown)
VH: DVQLVESGGGLVKPGGSLRLSCAASGFTFSTYTMSWVRQAPGKGLEWVATISPGDSFGYYYPDSVQGRFTISRDNAKNSLYLQMNSLRAEDTAVYYCTRDIYYNYGAWFAYWGQGTLVTVSS
VL: DIQLTQSPSSLSASVGDRVTITCKASQSVDYDGDSYMNWYQQKPGKAPKLLIYAASTLESGVPSRFSGSGSGTDFTLTISSLQPEDFATYYCQQANEDPRTFGQGTKVEIKR
notes: Anti-BDCA2 control antibody expressed in ExpiCHO-S cells
Regarding B1, in assay [1], the Kd is less than 1 pM, the “Response (nm)” value is 0.444 nm, the koff was less than 1e-07 s⁻¹ and the association rate constant (kon) came to 172000 M⁻¹ s⁻¹. Further, in assay [2], the affinity, expressed as Kd, was 6500 pM; the “Response (nm)” value was determined as 0.296 nm; the koff was 0.000643 s⁻¹; the kon amounted to 99000 M⁻¹ s⁻¹. Also, in assay [3], the Kd was less than 1 pM, the “Response (nm)” value came out at 0.0284 nm, the koff is less than 1e-07 s⁻¹ and the kon came to 300000 M⁻¹ s⁻¹.

B2: bispecific fusion protein BI-9D2-1GS4 (bispecific antibody, human IgG1, kappa)
heavy: not shown
light: ETVLTQSPATLSLSPGERATLSCRASSSVSYMYWFQQKPGQAPRLLIYSTSNLASGIPARFSGSGSGTDYTLTISSLEPEDFAVYYCQQRRNYPHTFGGGTKVEIKRTVAAPSVFIFPPSDEQLKSGTASVVCLLNNFYPREAKVQWKVDNALQSGNSQESVTEQDSKDSTYSLSSTLTLSKADYEKHKVYACEVTHQGLSSPVTKSFNRGEC
Turning to B2, in assay [1], the Kd is less than 1 pM, the “Response (nm)” value was 0.591 nm, the koff is less than 1e-07 s⁻¹ and the on-rate constant (kon) is 149000 M⁻¹ s⁻¹. Further, in assay [2], binding was put at a Kd of 724 pM, the “Response (nm)” value was 0.261 nm, the dissociation rate constant (koff) amounted to 0.000589 s⁻¹ and the kon was 813000 M⁻¹ s⁻¹. In addition, in assay [3], the dissociation constant (Kd) was less than 1 pM, the “Response (nm)” value was 0.299 nm, the koff is less than 1e-07 s⁻¹ and the on-rate constant (kon) came out at 400000 M⁻¹ s⁻¹.

B3: bispecific fusion protein BI-9D2-3G4S-4S (bispecific antibody, human IgG1, kappa)
heavy: not shown
light: B2 light
In the case of B3, in assay [1], the Kd was less than 1 pM, the “Response (nm)” value is 0.457 nm, the koff was less than 1e-07 s⁻¹ and the on-rate (kon) came out at 155000 M⁻¹ s⁻¹. Also, in assay [2], the Kd was determined as 528 pM, the “Response (nm)” value is 0.285 nm, the dissociation rate constant (koff) was found to be 0.000435 s⁻¹ and the kon came to 824000 M⁻¹ s⁻¹. In assay [3], the equilibrium dissociation constant (Kd) was less than 1 pM, the “Response (nm)” value was 0.358 nm, the off-rate (koff) was less than 1e-07 s⁻¹ and the kon was 382000 M⁻¹ s⁻¹.

B4: bispecific fusion protein BI-9D2-3G4S-8S (bispecific antibody, human IgG1, kappa)
heavy: not shown
light: B2 light
Regarding B4, in assay [1], the Kd is less than 1 pM, the “Response (nm)” value was found to be 0.476 nm, the dissociation rate constant (koff) is less than 1e-07 s⁻¹ and the kon came to 154000 M⁻¹ s⁻¹. Further, in assay [2], binding was put at a Kd of 166 pM, the “Response (nm)” value was found to be 0.29 nm, the koff was 0.000134 s⁻¹ and the on-rate (kon) worked out at 808000 M⁻¹ s⁻¹. For the same molecule, in assay [3], the Kd was less than 1 pM, the “Response (nm)” value was determined as 0.394 nm, the dissociation rate constant (koff) is less than 1e-07 s⁻¹ and the kon was determined as 402000 M⁻¹ s⁻¹.

B5: bispecific fusion protein BI-9D2-2GS4 (bispecific antibody, human IgG1, kappa)
heavy: not shown
light: B2 light
Take B5: in assay [1], the equilibrium dissociation constant (Kd) was less than 1 pM, the “Response (nm)” value amounted to 0.56 nm, the off-rate constant (koff) was less than 1e-07 s⁻¹ and the kon worked out at 151000 M⁻¹ s⁻¹. Also, in assay [2], binding was characterised by a dissociation constant (Kd) of 391 pM, the “Response (nm)” value worked out at 0.242 nm, the dissociation rate constant (koff) worked out at 0.000339 s⁻¹ and the kon worked out at 866000 M⁻¹ s⁻¹. In assay [3], the dissociation constant (Kd) was less than 1 pM, the “Response (nm)” value was 0.302 nm, the koff is less than 1e-07 s⁻¹ and the on-rate (kon) worked out at 412000 M⁻¹ s⁻¹.

For orientation: Kd means the free concentration of one partner at which half of the binding sites on the other are occupied at equilibrium, for simple one-to-one binding. Read a high Kd as lower affinity. Broadly, the koff is a measure of how fast the partners let go of each other. A low value points to slow dissociation. As usually defined, the kon is the second-order rate constant of association. Read a high kon as fast association.
